For one data set, the system named is human B2M locus. As to the kind of experiment: Editing (indel rate by NGS) at the B2M locus by catalytically-dead CasX variants (Example 8). The note with it: HEK293T, B2M-targeting spacer 7.37, six days after transfection. It is filed as cell-based.
Data set [1] in a line: Editing assays comparing gRNA scaffolds. The conditions noted are these: compared with gRNA scaffold 174.
In another data set the test system is HBEGF locus. It is filed as cell-based, human. The conditions noted are these: dCasX491-KRAB lentiviral library, spacer 34.28, HEK293T, 2 ng/ml diphtheria toxin 48 hours.
Data set [2] deals with endogenous B2M (beta-2-microglobulin) gene. As to the kind of experiment: B2M protein expression by HLA antibody flow cytometry, dXR constructs (Example 1, Table 14). Type of data set: cell-based, human. The conditions noted are these: for % cells expressing B2M protein: HEK293T cells, % of cells counted that were positive, biological triplicates. The text has this: dXR variant plasmids encoding constructs having the configuration of U6-gRNA+Ef1α-NLS-GGS-dCasX491-GGS-KRAB variant-NLS (dCasX491 refers to catalytically-dead CasX 491), were transiently transfected into HEK293T cells in an arrayed 96-well format. These constructs also contained a 2× FLAG sequence, as well as sequences encoding either a gRNA scaffold 174 (SEQ ID NO: 2238) having a spacer (spacer 7.37) targeting the endogenous B2M (beta-2-microglobulin) gene or a non-targeting control (spacer 0.0), which were all cloned upstream of a P2A-puromycin element on the plasmid. Four different effector domains were tested in addition to the “naked” dCasX491 (KRAB variant domains listed in Table 9; spacer sequences listed in Table 10; sequences of additional elements listed in Table 11). The corresponding protein sequences of the dXR molecule are listed in Table 13, and the generic configuration of the dXR molecule is illustrated in FIG. 38. Positive and negative controls based on a catalytically-dead Cas9 nuclease (with or without a ZNF10 repressor) with a B2M-targeting gRNA (spacer 7.14) or a non-targeting gRNA control (spacer 0.0) were included, along with a catalytically-active CasX 491 and gRNA with the same 7.37 and 0.0 spacers. Two days after transfection, total RNA was harvested, and reverse transcribed to generate a cDNA library. Changes in gene expression were calculated by performing qPCR on the targeted gene and a housekeeping gene as reference. Relative gene expression represents the amount of target-specific RNA relative to a reference gene normalized to the non-targeting guide condition for two biological replicates. In addition to the wells used for RNA measurements, a separate set of wells was harvested seven days post-transfection and analyzed for B2M protein expression. Expression of B2M protein was determined by using an antibody that detects the B2M-dependent HLA protein complex on the cell surface. […]

B1: dCasX668: catalytically-dead CasX 668, SEQ ID NO: 59355 (protein)
chain: QEIKRINKIRRRLVKDSNTKKAGKTRGPMKTLLVRVMTPDLRERLENLRKKPENIPQPISNTSRANLNKLLTDYTEMKKAILHVYWEEFQKDPVGLMSRVAQPASKKIDQNKLKPEMDEKGNLTTAGFACSQCGQPLFVYKLEQVSEKGKAYTNYFGRCNVAEHEKLILLAQLKPEKDSDEAVTYSLGKFGQRALDFYSIHVTKESTHPVKPLAQIAGNRYASSPVGKALSDACMGTIASFLSKYQDIIIEHQKVVKGNQKRLESLRELAGKENLEYPSVTLPPQPHTKEGVDAYNEVIARVRMWVNLNLWQKLKLSRDDAKPLLRLKGFPSFPLVERQANEVDWWDMVCNVKKLINEKKEDGKVFWQNLAGYKRQEALRPYLSSEEDRKKGKKFARYQLGDLLLHLEKKHGEDWGKVYDEAWERIDKKVEGLSKHIKLEEERRSEDAQSKAALTDWLRAKASFVIEGLKEADKDEFCRCELKLQKWYGDLRGKPFAIEAENSILDISGFSKQYNCAFIWQKDGVKKLNLYLIINYFKGGKLRFKKIKPEAFEANRFYTVINKKSGEIVPMEVNFNFDDPNLIILPLAFGKRQGREFIWNDLLSLETGSLKLANGRVIEKTLYNRRTRQDEPALFVALTFERREVLDSSNIKPMNLIGVARGENIPAVIALTDPEGCPLSRFKDSLGNPTHILRIGESYKEKQRTIQAKKEVEQRRAGGYSRKYASKAKNLADDMVRNTARDLLYYAVTQDAMLIFANLSRGFGRQGKRTFMAERQYTRMEDWLTAKLAYEGLPSKTYLSKTLAQYTSKTCSNCGFTITSADYDRVLEKLKKTATGWMTTINGKELKVEGQITYYNRYKRQNVVKDLSVELDRLSEESVNNDISSWTKGRSGEALSLLKKRFSHRPVQEKFVCLNCGFETHAAEQAALNIARSWLFLRSQEYKKYQTNKTTGNTDKRAFVETWQSFYRKKLKEVWKPAV
On to B1, for which, in the data set with human B2M locus, the “percent editing at the B2M locus measured as indel rate by NGS” value (shortened to “percent editing at the B2M locus”) is recorded as “did not exhibit editing”.

B2: dCasX676: catalytically-dead CasX 676, SEQ ID NO: 59357 (protein)
chain: QEIKRINKIRRRLVKDSNTKKAGKTRGPMKTLLVRVMTPDLRERLENLRKKPENIPQPISNTSRANLNKLLTDYTEMKKAILHVYWEEFQKDPVGLMSRVAQPASKKIDQNKLKPEMDEKGNLTTAGFACSQCGQPLFVYKLEQVSEKGKAYTNYFGRCNVAEHEKLIKLAQLKPEKDSDEAVTYSLGKFGQRALDFYSIHVTKESTHPVKPLAQIAGNRYASSPVGKALSDACMGTIASFLSKYQDIIIEHQKVVKGNQKRLESLRELAGKENLEYPSVTLPPQPHTKEGVDAYNEVIARVRMWVNLNLWQKLKLSRDDAKPLLRLKGFPSFPLVERQANEVDWWDMVCNVKKLINEKKEDGKVFWQNLAGYKRQEALRPYLSSEEDRKKGKKFARYQLGDLLLHLEKKHGEDWGKVYDEAWERIDKKVEGLSKHIKLEEERRSEDAQSKAALTDWLRAKASFVIEGLKEADKDEFCRCELKLQKWYGDLRGKPFAIEAENSILDISGFSKQYNCAFIWQKDGVKKLNLYLIINYFKGGKLRFKKIKPEAFEANRFYTVINKKSGEIVPMEVNFNFDDPNLIILPLAFGKRQGREFIWNDLLSLETGSLKLANGRVIEKTLYNRRTRQDEPALFVALTFERREVLDSSNIKPMNLIGVARGENIPAVIALTDPEGCPLSRFKDSLGNPTHILRIGESYKEKQRTIQAKKEVEQRRAGGYSRKYASKAKNLADDMVRNTARDLLYYAVTQDAMLIFANLSRGFGRQGKRTFMAERQYTRMEDWLTAKLAYEGLPSKTYLSKTLAQYTSKTCSNCGFTITSADYDRVLEKLKKTATGWMTTINGKELKVEGQITYYNRYKRQNVVKDLSVELDRLSEESVNNDISSWTKGRSGEALSLLKKRFSHRPVQEKFVCLNCGFETHAAEQAALNIARSWLFLRSQEYKKYQTNKTTGNTDKRAFVETWQSFYRKKLKEVWKPAV
As to B2, the “percent editing at the B2M locus” value in the data set on human B2M locus was “did not exhibit editing”.

B3: dCasX527: catalytically-dead CasX 527, SEQ ID NO: 24 (protein)
chain: QEIKRINKIRRRLVKDSNTKKAGKTRGPMKTLLVRVMTPDLRERLENLRKKPENIPQPISNTSRANLNKLLTDYTEMKKAILHVYWEEFQKDPVGLMSRVAQPASKKIDQNKLKPEMDEKGNLTTAGFACSQCGQPLFVYKLEQVSEKGKAYTNYFGRCNVAEHEKLILLAQLKPEKDSDEAVTYSLGKFGQRALDFYSIHVTKESTHPVKPLAQIAGNRYASGPVGKALSDACMGTIASFLSKYQDIIIEHQKVVKGNQKRLESLRELAGKENLEYPSVTLPPQPHTKEGVDAYNEVIARVRMWVNLNLWQKLKLSRDDAKPLLRLKGFPSFPLVERQANEVDWWDMVCNVKKLINEKKEDGKVFWQNLAGYKRQEALRPYLSSEEDRKKGKKFARYQLGDLLLHLEKKHGEDWGKVYDEAWERIDKKVEGLSKHIKLEEERRSEDAQSKAALTDWLRAKASFVIEGLKEADKDEFCRCELKLQKWYGDLRGKPFAIEAENSILDISGFSKQYNCAFIWQKDGVKKLNLYLIINYFKGGKLRFKKIKPEAFEANRFYTVINKKSGEIVPMEVNFNFDDPNLIILPLAFGKRQGREFIWNDLLSLETGSLKLANGRVIEKTLYNRRTRQDEPALFVALTFERREVLDSSNIKPMNLIGVARGENIPAVIALTDPEGCPLSRFKDSLGNPTHILRIGESYKEKQRTIQAKKEVEQRRAGGYSRKYASKAKNLADDMVRNTARDLLYYAVTQDAMLIFANLSRGFGRQGKRTFMAERQYTRMEDWLTAKLAYEGLSKTYLSKTLAQYTSKTCSNCGFTITSADYDRVLEKLKKTATGWMTTINGKELKVEGQITYYNRYKRQNVVKDLSVELDRLSEESVNNDISSWTKGRSGEALSLLKKRFSHRPVQEKFVCLNCGFETHAAEQAALNIARSWLFLRSQEYKKYQTNKTTGNTDKRAFVETWQSFYRKKLKEVWKPAV
For B3, the “percent editing at the B2M locus” value in the data set with human B2M locus is reported as “did not exhibit editing”.

B4: 316 scaffold: chimeric RNA scaffold: scaffold 235 with extended stem loop of scaffold 174, SEQ ID NO: 59352, 89 nucleotides (nucleic acid)
guide: ACUGGCGCUUCUAUCUGAUUACUCUGAGCGCCAUCACCAGCGACUAUGUCGUAGUGGGUAAAGCUCCCUCUUCGGAGGGAGCAUCAGAG
modifications: listed as RNA, further chemistry not given here
For the molecule B4, the “performance in editing assays” value in data set [1] is reported as “comparably or more favorably than gRNA scaffold 174”.

B5: DOMAIN_26749: KRAB domain derived from the king cobra, Ophiophagus hannah, SEQ ID NO: 57755; top 10 (protein)
chain: STPVTFEDVVVYFTAAEWVHLTNWQRDFYQAVMMETYELVASVAGDGVPMAEDEEGGVERPVWQYIPRGKRRRKTPQPRAD
modifications: Ophiophagus hannah
With B5, the “log2 (fold change) in abundance of the KRAB domain before and after selection” value in the data set on HBEGF locus is “highest log (fold change)”.

B6: dCasX491: catalytically-dead CasX 491, SEQ ID NO: 18 (protein)
chain: QEIKRINKIRRRLVKDSNTKKAGKTGPMKTLLVRVMTPDLRERLENLRKKPENIPQPISNTSRANLNKLLTDYTEMKKAILHVYWEEFQKDPVGLMSRVAQPASKKIDQNKLKPEMDEKGNLTTAGFACSQCGQPLFVYKLEQVSEKGKAYTNYFGRCNVAEHEKLILLAQLKPEKDSDEAVTYSLGKFGQRALDFYSIHVTKESTHPVKPLAQIAGNRYASGPVGKALSDACMGTIASFLSKYQDIIIEHQKVVKGNQKRLESLRELAGKENLEYPSVTLPPQPHTKEGVDAYNEVIARVRMWVNLNLWQKLKLSRDDAKPLLRLKGFPSFPLVERQANEVDWWDMVCNVKKLINEKKEDGKVFWQNLAGYKRQEALRPYLSSEEDRKKGKKFARYQLGDLLLHLEKKHGEDWGKVYDEAWERIDKKVEGLSKHIKLEEERRSEDAQSKAALTDWLRAKASFVIEGLKEADKDEFCRCELKLQKWYGDLRGKPFAIEAENSILDISGFSKQYNCAFIWQKDGVKKLNLYLIINYFKGGKLRFKKIKPEAFEANRFYTVINKKSGEIVPMEVNFNFDDPNLIILPLAFGKRQGREFIWNDLLSLETGSLKLANGRVIEKTLYNRRTRQDEPALFVALTFERREVLDSSNIKPMNLIGVARGENIPAVIALTDPEGCPLSRFKDSLGNPTHILRIGESYKEKQRTIQAKKEVEQRRAGGYSRKYASKAKNLADDMVRNTARDLLYYAVTQDAMLIFANLSRGFGRQGKRTFMAERQYTRMEDWLTAKLAYEGLSKTYLSKTLAQYTSKTCSNCGFTITSADYDRVLEKLKKTATGWMTTINGKELKVEGQITYYNRYKRQNVVKDLSVELDRLSEESVNNDISSWTKGRSGEALSLLKKRFSHRPVQEKFVCLNCGFETHAAEQAALNIARSWLFLRSQEYKKYQTNKTTGNTDKRAFVETWQSFYRKKLKEVWKPAV
Consider B6, for which the “percent editing at the B2M locus” value with human B2M locus is recorded as “did not exhibit editing”. The “% cells expressing B2M protein” value in data set [2] (B2M-targeting spacer 7.37) is on record as 85.70%; in data set [2] (non-targeting spacer 0.0), 95.90%. The “cells negative for the B2M protein” value in data set [2] (HEK293T, seven days post-transfection, B2M-targeting gRNA, HLA flow cytometry) was approximately 10%.

The values are drawn from patent publication US20240392271A1, “ENGINEERED CASX REPRESSOR SYSTEMS” (Scribe Therapeutics Inc., priority 2021, published 2024).
